Data as given in patent publication US9994886B2, “Modified Epstein-Barr virus DNA polymerase and methods for isothermal DNA amplification” (priority 2013, dated 2018).
Substitutions are numbered along the chain they refer to. Names and notes keep the numbering of the source.

Key:
[1] = DNA polymerase activity in vitro of BALF5 deletion polypeptides; type: biochemical; settings: with or without BMRF1, high and low ionic strength
GST-BMRF1(1-303) = target: T1, GST-BMRF1(1-303) (Epstein-Barr virus, UniProt P03191); assay: Binding of radiolabeled BALF5-deletion polypeptides to GST-BMRF1(1-303); settings: 100 mM ammonium sulfate; [35S]-methionine labeled in vitro translated polypeptides
T1 construct: A GST fusion with BMRF1 residues 1-303 was constructed and expressed in E. coli BL21*DE3; made in house; host or cells: E. coli BL21*DE3
T1 sequence (P03191 1-303): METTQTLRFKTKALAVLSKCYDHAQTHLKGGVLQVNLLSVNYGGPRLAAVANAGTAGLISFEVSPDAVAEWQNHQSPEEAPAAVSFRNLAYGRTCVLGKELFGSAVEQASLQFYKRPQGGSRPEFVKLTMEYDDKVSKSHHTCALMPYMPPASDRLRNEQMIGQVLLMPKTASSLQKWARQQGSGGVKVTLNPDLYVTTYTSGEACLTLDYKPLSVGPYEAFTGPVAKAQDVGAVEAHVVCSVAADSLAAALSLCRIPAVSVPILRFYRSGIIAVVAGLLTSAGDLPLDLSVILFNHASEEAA
Protocol: To determine if the extreme carboxyl terminus of the EBV BALF5 subunit is necessary for functional interaction with BMRF1, a series of deletions of the BALF5 open reading frame was constructed in the pYES-X2 vector and [^35S]-methionine labeled polypeptides were expressed by in vitro transcription-translation as described (Kiehl, A. and D. I. Dorsky, J Virol, 1995, 69(3): p. 1669-77). These radiolabeled BALF5-deletion polypeptides were then assayed for binding to GST-BMRF1(1-303) in 100 mM ammonium sulfate. In vitro translated BALF5 bound to GST-BMRF1(1-303) but not to GST alone.

[2] = test system: activated calf thymus (CT) DNA; assay: DNA polymerase elongation activity of purified BALF5 on activated calf thymus DNA; type: biochemical; settings: BMRF1 at concentrations required for stimulation at high-salt
Protocol: When assayed in the presence of BMRF1, its activity on CT DNA at 100 mM ammonium sulfate was greater than 100-fold increased over its activity alone, in the absence of salt.

[3] = monomeric form of BMRF1; cited from earlier work

B1: C550: BALF5 with deletion of the carboxyl terminal 465 residues (protein)
chain: MASASLTMSGGLFYNPFLRPNKGLLKKPDKEYLRLIPKCFQTPGAAGVVDVRGPQPPLCFYQDSLTVVGGDEDGKGMWWRQRAQEGTARPEADTHGSPLDFHVYDILETVYTHEKCAVIPSDKQGYVVPCGIVIKLLGRRKADGASVCVNVFGQQAYFYASAPQGLDVEFAVLSALKASTFDRRTPCRVSVEKVTRRSIMGYGNHAGDYHKITLSHPNSVCHVATWLQDKHGCRIFEANVDATRRFVLDNDFVTFGWYSCRRAIPRLQHRDSYAELEYDCEVGDLSVRREDSSWPSYQALAFDIECLGEEGFPTATNEADLILQISCVLWSTGEEAGRYRRILLTLGTCEDIEGVEVYEFPSELDMLYAFFQLIRDLSVEIVTGYNVANFDWPYILDRARHIYSINPASLGKIRAGGVCEVRRPHDAGKGFLRANTKVRITGLIPIDMYAVCRDKLSLSDYKLDTVARHLLGAKKEDVHYKEIPRLFAAGPEGRRRLGMYCVQDSALVMDLLNHFVIHVEVAEIAKIAHIPCRRVLDDGQQIRVFSCLLAAAQKENF
Question: Which “DNA polymerase activity in vitro” value [1] does the source give for B1 here?
Answer: catalytically inactive

Question: What about the “binding to GST-BMRF1(1-303)” value (GST-BMRF1(1-303)) of the same molecule?
Answer: did not bind

B2: ΔC903: BALF5 with deletion of the carboxyl-terminal 112 residues (protein)
chain: MASASLTMSGGLFYNPFLRPNKGLLKKPDKEYLRLIPKCFQTPGAAGVVDVRGPQPPLCFYQDSLTVVGGDEDGKGMWWRQRAQEGTARPEADTHGSPLDFHVYDILETVYTHEKCAVIPSDKQGYVVPCGIVIKLLGRRKADGASVCVNVFGQQAYFYASAPQGLDVEFAVLSALKASTFDRRTPCRVSVEKVTRRSIMGYGNHAGDYHKITLSHPNSVCHVATWLQDKHGCRIFEANVDATRRFVLDNDFVTFGWYSCRRAIPRLQHRDSYAELEYDCEVGDLSVRREDSSWPSYQALAFDIECLGEEGFPTATNEADLILQISCVLWSTGEEAGRYRRILLTLGTCEDIEGVEVYEFPSELDMLYAFFQLIRDLSVEIVTGYNVANFDWPYILDRARHIYSINPASLGKIRAGGVCEVRRPHDAGKGFLRANTKVRITGLIPIDMYAVCRDKLSLSDYKLDTVARHLLGAKKEDVHYKEIPRLFAAGPEGRRRLGMYCVQDSALVMDLLNHFVIHVEVAEIAKIAHIPCRRVLDDGQQIRVFSCLLAAAQKENFILPMPSASDRDGYQGATVIQPLSGFYNSPVLVVDFASLYPSIIQAHNLCYSTMITPGEEHRLAGLRPGEDYESFRLTGGVYHFVKKHVHESFLASLLTSWLAKRKAIKKLLAACEDPRQRTILDKQQLAIKCTCNAVYGFTGVANGLFPCLSIAETVTLQGRTMLERAKAFVEALSPANLQALAPSPDAWAPLNPEGQLRVIYGDTDSLFIECRGFSESETLRFADALAAHTTRSLFVAPISLEAEKTFSCLMLITKKRYVGVLTDGKTLMKGVELVRKTACKFVQTRCRRVLDLVLADARVKEAASLLSHRPFQESFTQGLPVGFLPVIDILNQAYTDLREGRVPMGELCFS
Question: For B2, which “DNA polymerase activity in vitro” value [1] is on record?
Answer: wild-type DNA polymerase activity

Question: And the “binding to GST-BMRF1(1-303)” value (GST-BMRF1(1-303))?
Answer: binding was preserved

B3: WT (1-404): full-length 50-kDa BMRF1 processivity factor subunit of EBV DNA polymerase, SEQ ID NO. 9 (protein)
chain: METTQTLRFKTKALAVLSKCYDHAQTHLKGGVLQVNLLSVNYGGPRLAAVANAGTAGLISFEVSPDAVAEWQNHQSPEEAPAAVSFRNLAYGRTCVLGKELFGSAVEQASLQFYKRPQGGSRPEFVKLTMEYDDKVSKSHHTCALMPYMPPASDRLRNEQMIGQVLLMPKTASSLQKWARQQGSGGVKVTLNPDLYVTTYTSGEACLTLDYKPLSVGPYEAFTGPVAKAQDVGAVEAHVVCSVAADSLAAALSLCRIPAVSVPILRFYRSGIIAVVAGLLTSAGDLPLDLSVILFNHASEEAAASTASEPEDKSPRVQPLGTGLQQRPRHTVSPSPSPPPPPRTPTWESPARPETPSPAIPSHSSNTALERPLAVQLARKRTSSEARQKQKHPKKVKQAFNPLI
modifications: Epstein-Barr Virus
Question: For B3, which “effect on the low-salt activity of BALF5” value [2] is on record?
Answer: did not appear to significantly decrease

B4: C95E: BMRF1 comprising a C95E mutation, a monomeric form of BMRF1 (protein, UniProt P03191 1-404, looked up, variant C95E)
DNA polymerase processivity …: B3 chain with C95E
Question: Which EBVpol processivity [3] does the source give for B4 here?
Answer: can still efficiently catalyze EBVpol processivity

B5: N160: BALF5 with deletion of the amino-terminal 160 residues (protein)
chain: VEFAVLSALKASTFDRRTPCRVSVEKVTRRSIMGYGNHAGDYHKITLSHPNSVCHVATWLQDKHGCRIFEANVDATRRFVLDNDFVTFGWYSCRRAIPRLQHRDSYAELEYDCEVGDLSVRREDSSWPSYQALAFDIECLGEEGFPTATNEADLILQISCVLWSTGEEAGRYRRILLTLGTCEDIEGVEVYEFPSELDMLYAFFQLIRDLSVEIVTGYNVANFDWPYILDRARHIYSINPASLGKIRAGGVCEVRRPHDAGKGFLRANTKVRITGLIPIDMYAVCRDKLSLSDYKLDTVARHLLGAKKEDVHYKEIPRLFAAGPEGRRRLGMYCVQDSALVMDLLNHFVIHVEVAEIAKIAHIPCRRVLDDGQQIRVFSCLLAAAQKENFILPMPSASDRDGYQGATVIQPLSGFYNSPVLVVDFASLYPSIIQAHNLCYSTMITPGEEHRLAGLRPGEDYESFRLTGGVYHFVKKHVHESFLASLLTSWLAKRKAIKKLLAACEDPRQRTILDKQQLAIKCTCNAVYGFTGVANGLFPCLSIAETVTLQGRTMLERAKAFVEALSPANLQALAPSPDAWAPLNPEGQLRVIYGDTDSLFIECRGFSESETLRFADALAAHTTRSLFVAPISLEAEKTFSCLMLITKKRYVGVLTDGKTLMKGVELVRKTACKFVQTRCRRVLDLVLADARVKEAASLLSHRPFQESFTQGLPVGFLPVIDILNQAYTDLREGRVPMGELCFSTELSRKLSAYKSTQMPHLAVYQKFVERNEELPQIHDRIQYVFVEPKGGVKGARKTEMAEDPAYAERHGVPVAVDHYFDKLLQGAANILQCLFDNNSGAALSVLQNFTARPPF
Question: Which results are given for B5?
Answer: DNA polymerase activity in vitro [1]: catalytically inactive; binding to GST-BMRF1(1-303) (GST-BMRF1(1-303)): did not prevent binding

B6: A107-550: BALF5 with internal deletion of residues 107-550 (protein)
chain: MASASLTMSGGLFYNPFLRPNKGLLKKPDKEYLRLIPKCFQTPGAAGVVDVRGPQPPLCFYQDSLTVVGGDEDGKGMWWRQRAQEGTARPEADTHGSPLDFHVYDILETVYTHILPMPSASDRDGYQGATVIQPLSGFYNSPVLVVDFASLYPSIIQAHNLCYSTMITPGEEHRLAGLRPGEDYESFRLTGGVYHFVKKHVHESFLASLLTSWLAKRKAIKKLLAACEDPRQRTILDKQQLAIKCTCNAVYGFTGVANGLFPCLSIAETVTLQGRTMLERAKAFVEALSPANLQALAPSPDAWAPLNPEGQLRVIYGDTDSLFIECRGFSESETLRFADALAAHTTRSLFVAPISLEAEKTFSCLMLITKKRYVGVLTDGKTLMKGVELVRKTACKFVQTRCRRVLDLVLADARVKEAASLLSHRPFQESFTQGLPVGFLPVIDILNQAYTDLREGRVPMGELCFSTELSRKLSAYKSTQMPHLAVYQKFVERNEELPQIHDRIQYVFVEPKGGVKGARKTEMAEDPAYAERHGVPVAVDHYFDKLLQGAANILQCLFDNNSGAALSVLQNFTARPPF
Question: Which “DNA polymerase activity in vitro” value [1] does the source give for B6 here?
Answer: catalytically inactive

Question: What about the “binding to GST-BMRF1(1-303)” value (GST-BMRF1(1-303)) of the same molecule?
Answer: did not prevent binding
